Laboratory results reported in US6979673B1, “Method and compositions for modulating somatolactogenic functions” (Trustees of the University of Pennsylvania, priority 1999, dated 2005).

Test system: Nb2 cells
Assay: PRL-driven proliferation of Nb2 cells (3H-thymidine)
Assay type: cell-based, rat
Protocol: The effect of exogenous CypB on PRL-driven proliferation was examined with the rat Nb2 T-cell and the human T47D breast cancer line. […] This dose-dependent biphasic effect was most prominent at physiologic concentrations ([…]) of CypB and PRL (50 pM) found in human serum. […] To determine the effect of CypB on cellular growth driven by the larger family of cytokines, to which PRL belongs, proliferation driven by interleukin-2 (IL-2), IL-3 and GH was examined.
Nb2-cells (5×10^4; PRL-dependent, rat T-lymphoma) were plated in each well of 96 well plates in a defined DMEM-serum free medium (0.1 mM 2-mercaptoethanol, 1% penicillin/streptomycin, and 1% ITS+ (Calbiochem)). Cells were rested for 24 hours at 37° C. in this defined medium in the absence of PRL before the addition of 5–500 pM PRL (either as human pituitary isolated PRL, National Hormone and Pituitary Program, NIDDK; recombinant human PRL from E. coli, Genzyme; or recombinant human PRL from Drosophila S2 cells) alone or premixed with 1–2000 fold excess of purified CypB. Parallel studies were performed using human pituitary-derived GH (National Hormone and Pituitary Program, NIDDK). Cultures were incubated for 48 hours at 37° C. and proliferation was evaluated by the addition of 0.5 μCi of ^3H-thymidine for four hours followed by harvesting and scintillography. […]

Row | Molecule | bioactivity in Nb2 bioassays (protein expressed in Drosophila S2 cells) | PRL concentration at which Nb2 growth curves plateau (PRL alone, sigmoid shaped growth curves)
1 | Myc-tagged PRL: recombinant myc-tagged human PRL expressed and secreted by Drosophila S2 cells (protein, left off: small tags and cut ends, recombinant myc-tagged human PRL expressed and secreted by Drosophila S2 cells) LPICPGGAARCQVTLRDLFDRAVVLSHYIHNLSSEMFSEFDKRYTHGRGFITKAINSCHTSSLATPEDKEQAQQMNQKDFLSLIVSILRSWNEPLYHLVTEVRGMQEAPEAILSKAVEIEEQTKRLLEGMELIVSQVHPETKENEIYPVWSGLPSLQMADEESRLSAYYNLLHCLRRDSHKIDNYLKLLKCRIIHNNNC | functionally bioactive | –
2 | PRL: somatolactogenic hormone prolactin; human pituitary isolated or recombinant human PRL (protein, left off: small tags and cut ends) LPICPGGAARCQVTLRDLFDRAVVLSHYIHNLSSEMFSEFDKRYTHGRGFITKAINSCHTSSLATPEDKEQAQQMNQKDFLSLIVSILRSWNEPLYHLVTEVRGMQEAPEAILSKAVEIEEQTKRLLEGMELIVSQVHPETKENEIYPVWSGLPSLQMADEESRLSAYYNLLHCLRRDSHKIDNYLKLLKCRIIHNNNC | – | approximately 2 ng PRL/ml
